One assay has as its system S. aureus RN4220. In words: Growth kinetics assay (CFU) of S. aureus clones expressing phage ORF under arsenite-inducible promoter. The format is cell-based, Staphylococcus aureus. The source says:
Bacteriophage ORFs encoded in phage G1 genome were identified as follows: beginning at the first nucleotide, the phage G 1 genome sequence is scanned for a start codon. When one is identified, the number of in-frame codons is counted until a termination codon is reached. A minimum threshold of 33 codons defines this bounded sequence as an ORF. This procedure is repeated, starting at the next nucleotide following the last stop codon, until the end of the phage sequence is reached. The scan is performed in an identical manner on all three reading frames of both DNA strands of the phage sequence, in order to identify all the putative ORFs. Putative genes are then identified based on the presence of a Shine-Dalgarno sequence within the 15 nucleotides upstream of the start codon. The E. coli-S. aureus shuttle vector pTOO21 (Tauriainen et al., Appl. Environ. Microbiol. (1997) 63:4456-64), containing the arsenite-inducible ars promoter and the arsR gene, was modified with an optimal Shine-Dalgarno sequence (AGGAGG) followed by a multiple cloning site (MCS). DNA encoding individual phage ORFs was amplified by PCR from phage genomic DNA and cloned into the MCS of the modified vector. […]

The target of assay [1] is holoenzyme reconstituted from STAAU_R12 and E. coli core RNA polymerase (Staphylococcus aureus, UniProt P0A0J0). In words: In vitro transcription assay (polyacrylamide/urea gel), reconstituted holoenzyme. It counts as biochemical. The conditions noted are these: pre-incubation with STAAU_R12, 0 to 2 μM, FIG. 6B.
Chain of holoenzyme reconstituted from STAAU_R12 and E. coli core RNA polymerase (P0A0J0 whole entry): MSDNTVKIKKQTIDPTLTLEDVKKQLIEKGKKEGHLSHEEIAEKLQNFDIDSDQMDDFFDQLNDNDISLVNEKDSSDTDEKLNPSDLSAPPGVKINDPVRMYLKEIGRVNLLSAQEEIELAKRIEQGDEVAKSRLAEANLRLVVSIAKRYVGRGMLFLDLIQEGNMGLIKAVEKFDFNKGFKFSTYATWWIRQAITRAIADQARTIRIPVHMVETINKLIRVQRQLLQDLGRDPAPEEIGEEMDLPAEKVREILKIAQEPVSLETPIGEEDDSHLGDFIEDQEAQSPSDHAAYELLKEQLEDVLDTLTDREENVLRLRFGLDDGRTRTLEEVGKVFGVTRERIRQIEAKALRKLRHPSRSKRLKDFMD
Method: (§1) The E. coli holoenzyme (Epicentre) was used at 10 nM as a positive control for monitoring transcription efficiency. Assays were done with increasing amounts (0 to 500 nM) of STAAU_R12 and 25 nM of E. coli core in a total volume of 25 μl containing 40 mM Tris-acetate pH 7.9, 100 mM NaCl, 5 mM MgCl2, 1 mM DTT, 0.1 mg/ml BSA, 0.5 mM of each ATP, GTP, CTP, 0.25 mM UTP, 5 μCi [^32P] UTP (3000 Ci/mmole), 2 units of RNasin (Promega) and 40 ng of pB6 template DNA (Lutz and Bujard, Nuc. Acid Res. (1997) 6:1203-10) harboring λPL promoter, kanamycin gene and the Col E1 RNA-1. […] Reactions were incubated at 37° C. for 15 min and stopped by addition of 5 μl of loading buffer (95% formamide, 20 mM EDTA and 0.05% of each xylene cyanol and bromophenol blue). Samples were boiled for 5 min and electrophoresed on a 6% polyacrylamide/8 M urea gel.
Assay [2] deals with T1, reconstituted holoenzyme from HK-STAAU_R12 and S. aureus core enzyme (Staphylococcus aureus, UniProt P0A0J0).
T1 construct: made in house; S. aureus RN4220 transformed with pTMHB rpoA (core enzyme)
T1 sequence (P0A0J0 whole entry): as above
Kind of assay: In vitro transcription and TCA precipitation assay, 96-well. The conditions noted are these: 10 μM, FIG. 8. The format is biochemical. The source says:
In order to convert this gel-based transcription assay to a 96-well high through put format, we used an in vitro transcription assay followed by a TCA precipitation step in order to separate radiolabeled nucleotides incorporated into nucleic acid from unincorporated label. Such format is convenient as it will allow rapid screening with a large collection of compounds. In this TCA precipitation assay, we reconstituted the holoenzyme from STAAU_R12 and S. aureus core enzyme instead of using the E. coli core enzyme with STAAU_R12.
The E. coli core enzyme (Epicentre) was used as a positive control for monitoring transcription efficiency. The set up of high throughput screening assay for STAAU_R12 is illustrated in FIG. 7. […] UTP (3000 Ci/mmole), 1 U of RNasin (Promega) and 40 ng of pTMSM template DNA (a pTM derivative vector). To investigate the in vitroeffectofG1ORF67 on STAAU_R12 mediated transcriptional activation, G1ORF67 and a negative control (10 μM) were added to the mixture and the reaction was incubated for 1 h at 37° C. in a 96-well PCR-plate (BD-Falcon™). […] After filtration, the wells were washed 3 times (225 μl per wash) with 10% TCA, 2 times (225 μl per wash) with 95% ethanol and then 75 μl of liquid scintillation cocktail was added and the plates were counted for 30 s on a Trilux™ Microbeta counter (Perkin Elmer-Packard).

The target in assay [3] is STAAU_R12 with E. coli core and biotinylated λPR oligonucleotide (Staphylococcus aureus, UniProt P0A0J0). It counts as biochemical. The conditions noted are these: 0 to 4 μM; 32 nM HK-STAAU_R12, 45 nM biotinylated DNA.
Chain of STAAU_R12 with E. coli core and biotinylated λPR oligonucleotide (P0A0J0 whole entry): as above
Method: We developed a fluorescence-based high throughput assay to monitor the interaction of STAAU_R12 with its cognate DNA. […] Europium cryptate (Eu) labeled anti-Histidine was used as an energy donor and Allophycocyanin (APC) labeled streptavidin was used as an energy acceptor.
The reaction was incubated for 15 min at room temperature and then, 6 μl of a mixture of Eu-conjugated anti-Histidine (CIS International) and APC-conjugated streptavidin (Prozyme) were added to final concentrations of 3 and 15 nM, respectively. Samples were mixed and 25 μl of the mixture was transferred to a 96-well opaque plate (Molecular Devices). After 45 min incubation at room temperature, the emission at 665 nm (APC) and at 612 nm (Eu) arising from excitation as 340 nm was measured using a Tecan Ultra™ plate reader. […] A mutated version of untagged λPR oligonucleotide consisting of a substitution of the −35 region (from TTGACT in the wild type PR oligonucleotide to ACTTTG in the mutated oligonucleotide) was used as a non specific competitor. Competitors were added to the reaction mixture prior to addition of Eu and APC conjugates.
Assay [4] concerns the target E. coli holoenzyme (E. coli sigma factor and E. coli core RNA polymerase) (Escherichia coli, UniProt P00579). The conditions noted are these: pre-incubation with E. coli holoenzyme, FIG. 6C.
Method: as §1

This is an account of results in US20040157314A1, “Inhibitors of Staphylococcus aureus primary sigma factor and uses thereof” (priority 2003, published 2004).

Chain of E. coli holoenzyme (E. coli sigma factor and E. coli core RNA polymerase) (P0A8V2 whole entry): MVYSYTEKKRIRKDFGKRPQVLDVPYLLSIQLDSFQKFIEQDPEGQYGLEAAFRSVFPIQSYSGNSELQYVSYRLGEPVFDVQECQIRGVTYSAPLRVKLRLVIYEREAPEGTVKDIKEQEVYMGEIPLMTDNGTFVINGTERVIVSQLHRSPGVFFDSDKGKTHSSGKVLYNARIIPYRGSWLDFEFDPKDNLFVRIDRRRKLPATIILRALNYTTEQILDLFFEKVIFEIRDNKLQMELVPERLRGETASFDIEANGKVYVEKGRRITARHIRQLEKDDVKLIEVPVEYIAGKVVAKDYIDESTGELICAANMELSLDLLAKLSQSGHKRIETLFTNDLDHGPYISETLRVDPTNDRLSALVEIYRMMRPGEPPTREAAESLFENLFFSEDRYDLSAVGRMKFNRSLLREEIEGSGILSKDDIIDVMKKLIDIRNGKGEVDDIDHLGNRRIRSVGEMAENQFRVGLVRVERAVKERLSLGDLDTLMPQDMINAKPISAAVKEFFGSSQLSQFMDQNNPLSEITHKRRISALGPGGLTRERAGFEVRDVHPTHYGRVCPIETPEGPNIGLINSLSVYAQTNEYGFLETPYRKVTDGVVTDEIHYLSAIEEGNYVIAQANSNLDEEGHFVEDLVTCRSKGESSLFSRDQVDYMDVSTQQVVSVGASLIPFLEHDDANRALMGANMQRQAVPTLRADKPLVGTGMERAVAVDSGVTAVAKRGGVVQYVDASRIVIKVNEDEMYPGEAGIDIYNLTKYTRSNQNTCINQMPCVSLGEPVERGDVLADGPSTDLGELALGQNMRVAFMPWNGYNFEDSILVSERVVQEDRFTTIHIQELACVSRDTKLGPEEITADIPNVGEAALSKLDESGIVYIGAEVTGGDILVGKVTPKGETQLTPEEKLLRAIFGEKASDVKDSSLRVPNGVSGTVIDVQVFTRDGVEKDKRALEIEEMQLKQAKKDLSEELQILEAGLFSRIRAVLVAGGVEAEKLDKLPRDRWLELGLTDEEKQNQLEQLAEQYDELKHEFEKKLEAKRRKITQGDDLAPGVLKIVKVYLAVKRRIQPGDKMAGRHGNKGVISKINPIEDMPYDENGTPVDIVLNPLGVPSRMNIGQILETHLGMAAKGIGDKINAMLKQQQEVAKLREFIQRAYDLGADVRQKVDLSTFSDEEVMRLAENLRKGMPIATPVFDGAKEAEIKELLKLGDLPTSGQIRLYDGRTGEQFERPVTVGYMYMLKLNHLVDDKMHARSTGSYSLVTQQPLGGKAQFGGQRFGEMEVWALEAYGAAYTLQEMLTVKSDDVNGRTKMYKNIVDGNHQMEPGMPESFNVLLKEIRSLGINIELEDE
Chain of E. coli holoenzyme (E. coli sigma factor and E. coli core RNA polymerase) (P00579 whole entry): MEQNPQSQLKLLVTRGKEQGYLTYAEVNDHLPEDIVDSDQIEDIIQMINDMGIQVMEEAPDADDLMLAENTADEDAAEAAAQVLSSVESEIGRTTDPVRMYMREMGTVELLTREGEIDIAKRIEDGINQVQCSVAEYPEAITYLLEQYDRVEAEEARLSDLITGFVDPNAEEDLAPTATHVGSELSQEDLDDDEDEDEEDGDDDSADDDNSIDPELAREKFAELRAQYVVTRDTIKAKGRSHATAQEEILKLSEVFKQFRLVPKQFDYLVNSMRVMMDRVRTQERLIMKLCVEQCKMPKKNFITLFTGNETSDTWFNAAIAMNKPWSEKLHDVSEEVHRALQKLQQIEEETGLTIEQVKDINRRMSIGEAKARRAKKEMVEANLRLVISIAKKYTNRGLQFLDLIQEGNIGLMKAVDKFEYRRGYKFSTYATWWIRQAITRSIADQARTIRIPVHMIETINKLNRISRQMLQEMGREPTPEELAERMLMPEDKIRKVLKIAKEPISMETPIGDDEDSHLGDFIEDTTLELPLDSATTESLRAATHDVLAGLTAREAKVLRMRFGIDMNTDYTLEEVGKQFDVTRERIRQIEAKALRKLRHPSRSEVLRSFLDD
Chain of E. coli holoenzyme (E. coli sigma factor and E. coli core RNA polymerase) (P0A7Z4 whole entry, further chain): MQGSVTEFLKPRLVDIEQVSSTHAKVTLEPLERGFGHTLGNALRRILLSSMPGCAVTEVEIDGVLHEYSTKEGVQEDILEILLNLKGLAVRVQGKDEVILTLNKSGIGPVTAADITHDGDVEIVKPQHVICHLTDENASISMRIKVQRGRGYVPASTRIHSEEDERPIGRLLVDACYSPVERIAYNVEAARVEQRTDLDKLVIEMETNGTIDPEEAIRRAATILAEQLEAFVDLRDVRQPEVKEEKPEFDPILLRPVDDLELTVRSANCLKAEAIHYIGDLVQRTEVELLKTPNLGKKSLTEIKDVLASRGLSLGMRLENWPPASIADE
Chain of E. coli holoenzyme (E. coli sigma factor and E. coli core RNA polymerase) (P0A8T7 whole entry, further chain): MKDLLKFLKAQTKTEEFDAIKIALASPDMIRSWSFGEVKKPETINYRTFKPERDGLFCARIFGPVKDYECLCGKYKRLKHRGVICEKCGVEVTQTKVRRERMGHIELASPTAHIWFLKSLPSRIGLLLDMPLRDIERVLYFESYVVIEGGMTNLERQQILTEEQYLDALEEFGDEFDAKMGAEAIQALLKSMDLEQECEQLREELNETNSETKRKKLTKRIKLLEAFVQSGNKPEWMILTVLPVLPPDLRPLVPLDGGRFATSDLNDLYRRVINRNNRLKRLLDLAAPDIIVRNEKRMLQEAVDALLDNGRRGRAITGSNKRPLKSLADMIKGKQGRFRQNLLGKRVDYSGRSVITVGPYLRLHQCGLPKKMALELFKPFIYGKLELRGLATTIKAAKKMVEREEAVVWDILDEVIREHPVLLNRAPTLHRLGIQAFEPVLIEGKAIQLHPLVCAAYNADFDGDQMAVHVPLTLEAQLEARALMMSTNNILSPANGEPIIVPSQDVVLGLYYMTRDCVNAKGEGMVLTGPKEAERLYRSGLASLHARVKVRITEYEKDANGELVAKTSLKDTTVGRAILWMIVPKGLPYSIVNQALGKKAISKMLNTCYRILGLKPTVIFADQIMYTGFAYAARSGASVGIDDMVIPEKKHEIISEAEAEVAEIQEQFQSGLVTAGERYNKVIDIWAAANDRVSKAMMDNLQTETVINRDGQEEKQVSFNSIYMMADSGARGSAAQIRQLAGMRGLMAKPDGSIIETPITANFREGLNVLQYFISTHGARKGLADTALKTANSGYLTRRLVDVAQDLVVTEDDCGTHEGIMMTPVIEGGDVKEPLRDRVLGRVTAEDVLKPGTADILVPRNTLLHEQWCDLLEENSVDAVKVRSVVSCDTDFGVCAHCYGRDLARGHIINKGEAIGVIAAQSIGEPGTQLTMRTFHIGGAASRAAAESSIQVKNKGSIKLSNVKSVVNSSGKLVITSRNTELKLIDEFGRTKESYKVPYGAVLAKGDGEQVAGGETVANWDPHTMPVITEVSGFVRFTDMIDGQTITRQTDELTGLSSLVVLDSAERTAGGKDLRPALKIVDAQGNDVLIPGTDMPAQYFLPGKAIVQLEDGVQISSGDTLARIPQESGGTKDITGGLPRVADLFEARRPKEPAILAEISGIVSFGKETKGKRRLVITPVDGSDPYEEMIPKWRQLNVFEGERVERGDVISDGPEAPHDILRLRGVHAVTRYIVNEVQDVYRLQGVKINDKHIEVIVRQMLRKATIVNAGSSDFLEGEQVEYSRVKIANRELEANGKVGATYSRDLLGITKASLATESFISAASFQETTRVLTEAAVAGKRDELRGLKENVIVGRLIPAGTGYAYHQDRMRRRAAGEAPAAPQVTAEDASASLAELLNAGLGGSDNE

B1: G1ORF67: 198 amino acids protein from S. aureus bacteriophage G1 (SEQ ID NO: 7), anti-primary sigma factor (protein)
chain: MKLKILDKDNATLNVFHRNKEHKTIDNVPTANLVDWYPLSNAYEYKLSRNGEYLELKRLRSTLPSSYGLDDNNQDIIRDNNHRCKIGYWYNPAVRKDNLKIIEKAKQYGLPIITEEYDANTVEQGFRDIGVIFQSLKTIVVTRYLEGKTEEELRIFNMKSEESQLNEALKESDFSVDLTYSDLGQIYNMLLLMKKISK
modifications: Bacteriophage G1
As to B1, the “number of CFU in cells expressing the ORF” value in the assay on S. aureus RN4220 (S. aureus RN4220, induced with 5 μM NaAsO2, FIG. 1) is “significantly reduced”. For the same molecule, the “type of growth inhibitory effect on S. aureus” value in the assay on S. aureus RN4220 (expression of the ORF in S. aureus) is recorded as “bacteriostatic”. Further, in assay [1], the “inhibition of STAAU_R12-mediated transcriptional activation” value was “dramatic inhibition”. Besides, the “inhibition of STAAU_R12 mediated transcriptional activation (TCA precipitation)” value in assay [2] is given as “dramatic inhibition”. Further, the “reduction of the TR-FRET signal (core-dependent DNA binding of STAAU_R12)” value in assay [3] is 7 fold. In addition, in assay [4], the “effect on transcription by E. coli holoenzyme” value is on record as “did not affect transcription”.
